Measured values as given in publication doi:10.1101/2025.07.07.663466.

Biological target: recombinant human mitochondrial Hsp60 (human), P10809
Assay: native gel or EMSA + SEC
Conditions: remark: other sources report otherwise

B1: recombinant human mitochondrial Hsp60, P10809 27-573 (natural protein)
chain: AKDVKFGADARALMLQGVDLLADAVAVTMGPKGRTVIIEQSWGSPKVTKDGVTVAKSIDLKDKYKNIGAKLVQDVANNTNEEAGDGTTTATVLARSIAKEGFEKISKGANPVEIRRGVMLAVDAVIAELKKQSKPVTTPEEIAQVATISANGDKEIGNIISDAMKKVGRKGVITVKDGKTLNDELEIIEGMKFDRGYISPYFINTSKGQKCEFQDAYVLLSEKKISSIQSIVPALEIANAHRKPLVIIAEDVDGEALSTLVLNRLKVGLQVVAVKAPGFGDNRKNQLKDMAIATGGAVFGEEGLTLNLEDVQPHDLGKVGEVIVTKDDAMLLKGKGDKAQIEKRIQEIIEQLDVTTSEYEKEKLNERLAKLSDGVAVLKVGGTSDVEVNEKKDRVTDALNATRAAVEEGIVLGGGCALLRCIPALDSLTPANEDQKIGIEIIKRTLKIPAMTIAKNAGVEGSLIVEKIMQSSSEVGYDAMAGDFVNMVEKGIIDPTKVVRTALLDAAGVASLLTTAEVVVTEIPKEEKDPGMGAMGGMGGGMGGGMF
- stoichiometry N: 7
